Test results as given in article PMC12285254.

System: T1, TetR1 (C_22735) (Pseudomonas syringae pv. actinidiae biovar 3 strain S26 (M228)), ORF:bd32bde6
T1 sequence: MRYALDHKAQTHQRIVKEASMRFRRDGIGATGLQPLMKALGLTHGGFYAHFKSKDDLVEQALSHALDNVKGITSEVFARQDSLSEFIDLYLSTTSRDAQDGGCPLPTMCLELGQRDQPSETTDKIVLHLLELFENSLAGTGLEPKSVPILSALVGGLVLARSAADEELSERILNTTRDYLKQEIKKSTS
Experiment: EMSA
Details: LightShift EMSA Optimization and Control kit (Thermo) per manufacturer, 100 ng probe per reaction, varied protein; 2 uL of 1 mg/mL Myc.A7 for supershift …

TTGAGTCGAGGATCACAATCTTCTGAAACATGGGCTTACCCTGATTTAATGGTGTGCAAGCCCTATAGCGATAACCATGCCAGCTTAAAAATATAAATAAGCCACTGATTTATAACGATATTTTAAAATATGAAATCCTTTGCAATACAAAACTTTGCGCAAACCGTTTTTTGCCACAACAGCTTTTGGCACAAAAACATCGGCCAGCTTCGCAAGGGAACTGATCCGGGACCGTGACCCACTCAGCGAACATAACCCGGCT (double strand) [hrpL upstream probe (262 bp)]
binding: binds
